Legend:
DPP8/V5/His (human) = DPP8/V5/His (human) (UniProt Q6V1X1); assay: cell-based or functional assay
DPPIV/V5/His (human) = DPPIV/V5/His (human) (UniProt P27487); assay: cell-based or functional assay
Chain of DPPIV/V5/His (human) (P27487 whole entry, form in doubt): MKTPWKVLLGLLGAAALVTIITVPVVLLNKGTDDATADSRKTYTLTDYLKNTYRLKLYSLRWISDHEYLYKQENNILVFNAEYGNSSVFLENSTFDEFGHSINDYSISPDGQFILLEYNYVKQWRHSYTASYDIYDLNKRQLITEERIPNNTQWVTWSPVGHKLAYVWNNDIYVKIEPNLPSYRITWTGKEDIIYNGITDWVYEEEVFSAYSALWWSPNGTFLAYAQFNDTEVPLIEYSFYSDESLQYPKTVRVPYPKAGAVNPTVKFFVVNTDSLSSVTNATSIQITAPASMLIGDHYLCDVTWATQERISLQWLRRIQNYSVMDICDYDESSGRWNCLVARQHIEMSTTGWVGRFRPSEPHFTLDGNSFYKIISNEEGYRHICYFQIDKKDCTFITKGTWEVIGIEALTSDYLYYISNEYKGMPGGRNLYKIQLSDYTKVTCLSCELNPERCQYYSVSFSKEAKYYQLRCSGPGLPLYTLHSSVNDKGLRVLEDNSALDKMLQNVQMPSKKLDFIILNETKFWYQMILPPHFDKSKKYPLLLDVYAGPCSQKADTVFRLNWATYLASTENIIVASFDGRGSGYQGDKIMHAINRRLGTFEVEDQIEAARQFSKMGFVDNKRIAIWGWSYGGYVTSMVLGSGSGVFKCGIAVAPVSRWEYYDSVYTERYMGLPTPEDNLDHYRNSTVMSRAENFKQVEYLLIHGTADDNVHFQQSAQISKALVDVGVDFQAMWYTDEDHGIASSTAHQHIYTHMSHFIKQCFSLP

Chain of DPP8/V5/His (human) (Q6V1X1 17-898): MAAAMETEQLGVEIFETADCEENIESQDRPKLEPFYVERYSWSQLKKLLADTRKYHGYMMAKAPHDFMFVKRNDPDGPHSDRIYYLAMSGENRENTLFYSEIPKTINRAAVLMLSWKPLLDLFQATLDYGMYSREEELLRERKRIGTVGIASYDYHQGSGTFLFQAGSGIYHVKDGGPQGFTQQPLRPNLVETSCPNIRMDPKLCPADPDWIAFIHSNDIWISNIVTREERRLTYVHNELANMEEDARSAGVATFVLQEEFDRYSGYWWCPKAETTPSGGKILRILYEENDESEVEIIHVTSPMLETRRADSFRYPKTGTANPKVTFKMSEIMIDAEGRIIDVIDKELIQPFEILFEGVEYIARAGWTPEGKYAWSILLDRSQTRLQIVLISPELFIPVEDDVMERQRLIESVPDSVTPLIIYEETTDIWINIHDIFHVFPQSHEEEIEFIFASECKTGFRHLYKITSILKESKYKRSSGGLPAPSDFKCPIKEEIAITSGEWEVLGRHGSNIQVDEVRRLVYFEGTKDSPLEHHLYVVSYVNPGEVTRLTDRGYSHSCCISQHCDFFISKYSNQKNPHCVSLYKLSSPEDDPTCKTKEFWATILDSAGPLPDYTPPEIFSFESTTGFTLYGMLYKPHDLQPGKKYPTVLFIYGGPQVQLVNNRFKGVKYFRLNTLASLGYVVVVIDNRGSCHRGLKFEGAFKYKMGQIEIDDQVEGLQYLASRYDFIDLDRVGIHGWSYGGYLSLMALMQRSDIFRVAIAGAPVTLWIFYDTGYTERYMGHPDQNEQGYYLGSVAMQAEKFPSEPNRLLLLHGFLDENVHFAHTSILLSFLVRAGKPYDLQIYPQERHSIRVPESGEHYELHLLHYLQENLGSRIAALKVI

Ala-Pro-Gly (peptide)
Residual activity (% of control), H-Ala-Pro-pNA hydrolysis, peptide at 10 mM (DPP8/V5/His (human)): 51 % of control | Residual activity (% of control), H-Gly-Pro-pNA hydrolysis, peptide at 10 mM (DPPIV/V5/His (human)): 67 % of control

From patent US20040191826A1
